From the supplement of paper PMC10567573
± gives the standard deviation.

Test: protein stability index of a GFP-peptide fusion (GPS, HEK-293T) (PSI 1-6); higher = more stable
[1] = treatment: DMSO, c terminus: a fixed tail appended
[2] = treatment: MLN4924 1 uM, 8 h, c terminus: a fixed tail appended
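Note: 24-mer peptide tiles fused after GFP, lentivirally expressed, FACS-sorted into six equal bins by GFP/DsRed ratio, decoded by Illumina sequencing, PSI is the read-weighted mean bin number.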

KIGYHLLYYLRASKAAAGKMNLYE [INTS3]
protein stability index [1]: 2.3 ± 0.49
protein stability index [2]: 2.25 ± 0.23

QLSSFGSVDWLSQSSCSGPTHTPR [VENTX]
protein stability index [1]: 3.48 ± 0.3
protein stability index [2]: 3.69 ± 0.29

LFMKKNHEEEVKGLQAQIASSGLT [KRT18]
protein stability index [1]: 3.81 ± 0.15
protein stability index [2]: 3.98 ± 0.27

QWWNAVFIMLLIGIVLPVFYLVYF [LYSMD4]
protein stability index [1]: 2.2 ± 0.16
protein stability index [2]: 2.14 ± 0.17

ARHFNYVGDLMGSLAYCLACGGGH [DHCR7]
protein stability index [1]: 2.9 ± 0.71
protein stability index [2]: 2.68 ± 0.53

QLQKILSIPQSSLEPLKAIIQYRL [ACSBG2]
protein stability index [1]: 2.78 ± 0.86
protein stability index [2]: 2.36 ± 0.25

FRVAKKRAPKVLGTTLVVGLLAGV [GDAP1]
protein stability index [1]: 2.47 ± 0.86
protein stability index [2]: 1.82 ± 0.61

NEKETMQSLNDRLASYLDRVRSLE [KRT18]
protein stability index [1]: 3.61 ± 0.23
protein stability index [2]: 3.54 ± 0.28

YYYTKVMSELFLHTPSDTGVSFQA [PKD2L1]
protein stability index [1]: 2.74 ± 0.59
protein stability index [2]: 2.67 ± 0.64

ARARERERLAHSRAAAAAAVAAAT [KCNA4]
protein stability index [1]: 4.27 ± 0.24
protein stability index [2]: 4.38 ± 0.13

TFDIDPMVVTDCIQVDPPERPPPP [MCOLN1]
protein stability index [1]: 4.69 ± 0.29
protein stability index [2]: 4.89 ± 0.35

EEEKKKMEESKAKFENLCKLMKEI [HSP90AB1]
protein stability index [1]: 4.43 ± 0.36
protein stability index [2]: 4.58 ± 0.49

SPSRAPGLRQRASNKVQDSAPVET [HMOX1]
protein stability index [1]: 5.01 ± 0.27
protein stability index [2]: 5.22 ± 0.2

KCKAEHDQLLLNYAKKESDLNGAQ [LMNB1]
protein stability index [1]: 4.03 ± 0.38
protein stability index [2]: 4.01 ± 0.32

FAPFIVYYFIMACDQYSCALTGPV [DHCR7]
protein stability index [1]: 3.01 ± 0.077
protein stability index [2]: 3.2 ± 0.2

LELNFKAGDVIFLLSRINKDWLEG [NCF4]
protein stability index [1]: 2.77 ± 0.7
protein stability index [2]: 3.09 ± 1.6

VSEDFNKMNFIKTYPAHQNRVSAI [WDFY1]
protein stability index [1]: 2.9 ± 0.21
protein stability index [2]: 3.03 ± 0.46

SEPHYGHAGTVYGGVMYISGGITH [KLHL13]
protein stability index [1]: 2.17 ± 0.47
protein stability index [2]: 2.14 ± 0.17

IVSRATGRCLEVEMSKDANFGLRL [GALNT9]
protein stability index [1]: 2.66 ± 0.76
protein stability index [2]: 2.72 ± 0.67

LVRGHRRRLLRRLSPSRGVAQCLR [ZSWIM9]
protein stability index [1]: 3.2 ± 0.23
protein stability index [2]: 3.41 ± 0.25

RESWDSAKKLPPVQESQSERLQAA [ELOA2]
protein stability index [1]: 5.12 ± 0.17
protein stability index [2]: 5.02 ± 0.086

LMMRGVKHHNLEGLRKRIATLFFH [IQUB]
protein stability index [1]: 2.34 ± 0.62
protein stability index [2]: 2.52 ± 0.7

LVHHRAAHSNEILIFSVQPKSLVR [KLHDC2]
protein stability index [1]: 2.45 ± 0.31
protein stability index [2]: 2.21 ± 0.24

PPLPLHPGGDQGGPPVGPLSLGLA [WAS]
protein stability index [1]: 4.26 ± 0.25
protein stability index [2]: 4.45 ± 0.15

SYAFPKEFPYRMNHILECEFYLLE [CCNC]
protein stability index [1]: 2.24 ± 0.57
protein stability index [2]: 2.7 ± 1.1

YFDPLRNEYFFDRNRPSFDAILYY [KCNA3]
protein stability index [1]: 2.62 ± 0.54
protein stability index [2]: 2.44 ± 0.32

YPHTRIQSLVSILRTTVHHAFPVV [CLCN6]
protein stability index [1]: 2.42 ± 0.57
protein stability index [2]: 2.14 ± 0.15

SAVEKEPARAPPEPPHNLFCAPGS [SERTAD3]
protein stability index [1]: 4.95 ± 0.24
protein stability index [2]: 4.98 ± 0.078

GTDVTRCICGFTHDDGYMICCDKC [KMT2E]
protein stability index [1]: 5 ± 0.2
protein stability index [2]: 5.07 ± 0.12

IVSEVQFVESSGGGSSAVGQFVSL [BRF1]
protein stability index [1]: 2.25 ± 0.23
protein stability index [2]: 2.23 ± 0.26

PLHLSALRDDVLCARMLYNYGADT [ASB7]
protein stability index [1]: 2.27 ± 0.15
protein stability index [2]: 2.48 ± 0.38

KNVEENLYSSSLGGGVATSPMLIV [GLT8D2]
protein stability index [1]: 2.26 ± 0.26
protein stability index [2]: 2.06 ± 0.22

TKSPCESNNKKNDEMQEVPNRVLA [SPANXN3]
protein stability index [1]: 5.22 ± 0.2
protein stability index [2]: 5.33 ± 0.19

RIHSGKKPYACDECAKAFSRSAIL [ZNF396]
protein stability index [1]: 2.31 ± 0.4
protein stability index [2]: 2.38 ± 0.33

SWVTDMCKVGASSDPCGQLRPTLL [PNLIPRP1]
protein stability index [1]: 2.14 ± 0.38
protein stability index [2]: 2.34 ± 0.41

VPGTQVGQGGKLWDPSVQSCKEGL [ZNF263]
protein stability index [1]: 4.12 ± 0.12
protein stability index [2]: 4.26 ± 0.18

TTNPHTSASHRPCVNGDVDKPSEP [SMG5]
protein stability index [1]: 5.15 ± 0.23
protein stability index [2]: 5.12 ± 0.14

VPWESDIWDINNQICTVKDIKAEP [ATF6]
protein stability index [1]: 4.02 ± 0.24
protein stability index [2]: 3.9 ± 0.25

SPTFPALGIGMDSCVIPLRHGGLS [SEPHS2]
protein stability index [1]: 2.98 ± 0.15
protein stability index [2]: 2.98 ± 0.29

MGATRCDFTLSKTNMARIREIMEK [CPXM2]
protein stability index [1]: 2.96 ± 0.088
protein stability index [2]: 3.3 ± 0.31

DMSWTCGNQDYKYRVSDVTKAGHS [VDR]
protein stability index [1]: 2.73 ± 0.15
protein stability index [2]: 2.74 ± 0.095

ILTRSWEEVSTLNAQIPELKSDLE [CD207]
protein stability index [1]: 3.56 ± 0.28
protein stability index [2]: 3.78 ± 0.16

SAALFYLTNSEYRSEQSVKLRRQV [ZER1]
protein stability index [1]: 2.85 ± 0.57
protein stability index [2]: 2.83 ± 0.069

TRVNLSSDTESTDLPSSTPVANSG [DLC1]
protein stability index [1]: 5.05 ± 0.1
protein stability index [2]: 5.26 ± 0.11

FSSNIHTYHVGKQCFFNGVFLGNK [SPATS1]
protein stability index [1]: 2.56 ± 0.39
protein stability index [2]: 2.05 ± 0.32

RPCVPPSCHGYTLPGACNIPANVS [KRT33B]
protein stability index [1]: 2.79 ± 0.24
protein stability index [2]: 2.74 ± 0.17

DYPYSPPAFRFLTKMWHPNIYETG [CDC34]
protein stability index [1]: 2.17 ± 0.62
protein stability index [2]: 1.94 ± 0.28

AGLLIIVLAIIAREGDCAPEEKIW [MAGEA3]
protein stability index [1]: 3.25 ± 0.46
protein stability index [2]: 2.8 ± 0.34

RQSSVTESTLYPNPYHQPYISRKY [TPRG1]
protein stability index [1]: 3.44 ± 0.31
protein stability index [2]: 3.67 ± 0.23

RYFSLSLMSGALAVNQKIDRESLC [PCDHGC5]
protein stability index [1]: 2.03 ± 0.21
protein stability index [2]: 2.1 ± 0.28

DTRLRYSFFVPRPTPSTPRPTPQD [ADAMTS4]
protein stability index [1]: 3.64 ± 0.15
protein stability index [2]: 3.74 ± 0.089

IIHVVKDQLIGQGIIVKDARLNGS [TENT5D]
protein stability index [1]: 2.2 ± 0.18
protein stability index [2]: 2.25 ± 0.72

ADLRLGGQPAPPQLLLGRLFRWPD [SMAD6]
protein stability index [1]: 2.84 ± 0.13
protein stability index [2]: 2.83 ± 0.23

EGYCQAQAPIAAVLLMHMPAEQAF [TBC1D10A]
protein stability index [1]: 2.33 ± 0.49
protein stability index [2]: 2.03 ± 0.27

RPEGYNLKDEEGKLKDLSTVTSLQ [PPP2R2C]
protein stability index [1]: 5.12 ± 0.23
protein stability index [2]: 5.29 ± 0.17

ERHKLKRQDADAWTLYKILDSCKQ [SMG5]
protein stability index [1]: 2.75 ± 0.21
protein stability index [2]: 2.9 ± 0.36

DVEAWFNTQTEELNQQVVSSSEQL [KRT36]
protein stability index [1]: 4.65 ± 0.22
protein stability index [2]: 4.73 ± 0.15

ESGLRSLRLFQKLEENGDLYLAV [WDR41]
protein stability index (treatment: DMSO, c terminus: native): 2.08 ± 0.2
protein stability index (treatment: MLN4924 1 uM, 8 h, c terminus: native): 2.16 ± 0.36

TNEKMLKAVFGKHGPISEVLLIKD [RBMY1A1]
protein stability index [1]: 2.82 ± 0.24
protein stability index [2]: 2.96 ± 0.15

DARMLDHLTKKDLRVHLKMVDSFH [PPFIA4]
protein stability index [1]: 2.48 ± 0.37
protein stability index [2]: 2.78 ± 0.44

FNCIRAAIAPFQSAGSPPELQGLP [NET1]
protein stability index [1]: 2.67 ± 0.2
protein stability index [2]: 2.72 ± 0.2

TGTKKVTRILDGGNPFLDVPQALS [PSD2]
protein stability index [1]: 3.24 ± 0.36
protein stability index [2]: 3.4 ± 0.12

SPTDIQDSSIIRTTQDLFAINRDT [RHOBTB3]
protein stability index [1]: 4.47 ± 0.15
protein stability index [2]: 4.67 ± 0.44

QVLLKGMTSISLPSVMDPGAFETV [ZBTB22]
protein stability index [1]: 2.61 ± 0.36
protein stability index [2]: 2.84 ± 0.37

NGIGAVLDFTHPKARDWFQGHLRR [MYORG]
protein stability index [1]: 2.75 ± 0.34
protein stability index [2]: 2.64 ± 0.27

ERFIQYLASRNTLFNLSNFLDKSG [SNAP91]
protein stability index [1]: 2.4 ± 0.26
protein stability index [2]: 2.53 ± 0.61

PLTGFLTTVPDGPTQLRALNLTEG [TNXB]
protein stability index [1]: 3.81 ± 0.26
protein stability index [2]: 3.55 ± 0.22

NLVSVGYQAGKPDALTKLEQGEPL [ZNF649]
protein stability index [1]: 4.39 ± 0.27
protein stability index [2]: 4.17 ± 0.4

TTLSFYGNSISISALQSLLQHLIG [PRAME]
protein stability index [1]: 2.82 ± 0.46
protein stability index [2]: 2.82 ± 0.48

LFQFSNCSQGQQLATFSSDWEIQE [CCDC3]
protein stability index [1]: 3.12 ± 0.45
protein stability index [2]: 2.94 ± 0.33

RKHALERFEQEAVAVDSNLRVREL [CCDC89]
protein stability index [1]: 4.21 ± 0.12
protein stability index [2]: 4.47 ± 0.21

DCMLSEEGATLLLRGLCANTVLRF [LRRC45]
protein stability index [1]: 2.44 ± 0.48
protein stability index [2]: 2.42 ± 0.4

LKEAPVQDQGYKTLRLRENCVLSS [ZNF8]
protein stability index [1]: 3.88 ± 0.12
protein stability index [2]: 3.84 ± 0.1

EGKNMSFVNDLTVTQDGRKIYFTD [APMAP]
protein stability index [1]: 3.98 ± 0.38
protein stability index [2]: 3.91 ± 0.58

LLELAGEVTDTGDPIVRPLWWIAP [MYORG]
protein stability index [1]: 2.46 ± 0.21
protein stability index [2]: 2.43 ± 0.24

GTLDCISMALTCTFNRWGTLLAVG [RBBP5]
protein stability index [1]: 3.2 ± 0.3
protein stability index [2]: 3.24 ± 0.59

VATTARHSAAYRADPLRVSSRDKL [FUNDC2]
protein stability index [1]: 4.1 ± 0.096
protein stability index [2]: 4.1 ± 0.19

ATEWQKAGAPPPSGSAVSTAPQQK [SRPK2]
protein stability index [1]: 5.42 ± 0.14
protein stability index [2]: 5.18 ± 0.21

VIGFAKMIPGFRDLTSEDQIVLLK [VDR]
protein stability index [1]: 2.36 ± 0.51
protein stability index [2]: 2.42 ± 0.46

TVYNEMDKNRCELLSFLLLMDYIG [EDNRA]
protein stability index [1]: 2.09 ± 0.34
protein stability index [2]: 2.17 ± 0.5

PGDPSKDRAAKRLSLESEGAGEGA [TPPP]
protein stability index [1]: 5.47 ± 0.22
protein stability index [2]: 5.33 ± 0.38

ELRRLFLVQDLVDSLKFAVLMWLL [RTN1]
protein stability index [1]: 2.18 ± 0.56
protein stability index [2]: 2.2 ± 0.29

CSQYDRVYCGAGVQKEHEEYMKNL [PCMTD2]
protein stability index [1]: 2.93 ± 0.61
protein stability index [2]: 2.6 ± 0.55

PSEICDRLVNEYVELVNAACNFEP [ZER1]
protein stability index [1]: 3.15 ± 0.3
protein stability index [2]: 3.17 ± 0.23

QVVGQVNVEMDATPGIDLTRVLAE [KRT13]
protein stability index [1]: 4.07 ± 0.32
protein stability index [2]: 4.15 ± 0.2

ETLKHIKATEPTETVQTWIELLTG [GOLPH3L]
protein stability index [1]: 2.59 ± 0.2
protein stability index [2]: 2.86 ± 0.22

TRRRAVGWWKRLFTLKEEKPKMYF [ARL6IP1]
protein stability index [1]: 2.25 ± 0.39
protein stability index [2]: 2.11 ± 0.32

QCDHCERCFYTRKDVRRHLVVHTG [PLAGL1]
protein stability index [1]: 2.91 ± 0.074
protein stability index [2]: 3.19 ± 0.27

KKCGRENWTVAFAPDGSYFAWSQG [WSB1]
protein stability index [1]: 2.33 ± 0.53
protein stability index [2]: 2.22 ± 0.31
